# Test results as given in US7119182 (University of California, dated 2006).
# Numbered stars: 1 amine (or outer) side, 2 acyl side, 3 side chain; on linkers, the order of the positions; unused ones are H or OH. Square brackets hold non-standard residues; d marks the D form. Ends that are not written are not given here. SMeCys = S-methylcysteine, CSC[C@H](N[*:1])C(=O)[*:2]; Tic = O=C(O)[C@@H]1Cc2ccccc2CN1; Cha = N[C@@H](CC1CCCCC1)C(=O)O; Phg = N[C@H](C(=O)O)c1ccccc1
# T1: human thrombin receptor (human, UniProt P25116 42-425)
# T1 chain: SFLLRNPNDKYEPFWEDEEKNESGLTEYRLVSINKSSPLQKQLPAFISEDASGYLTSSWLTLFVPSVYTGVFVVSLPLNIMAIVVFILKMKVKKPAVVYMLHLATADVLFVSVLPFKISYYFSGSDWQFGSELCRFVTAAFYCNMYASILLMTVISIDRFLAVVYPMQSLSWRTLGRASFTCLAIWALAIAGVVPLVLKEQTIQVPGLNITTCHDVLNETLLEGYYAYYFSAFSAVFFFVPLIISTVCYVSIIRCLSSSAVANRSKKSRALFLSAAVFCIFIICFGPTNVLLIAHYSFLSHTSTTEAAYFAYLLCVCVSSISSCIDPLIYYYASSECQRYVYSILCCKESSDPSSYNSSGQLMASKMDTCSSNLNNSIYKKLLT
# Target: T1, human thrombin receptor
# Assay: cell-based or functional assay
row,Binder,"EC50 (concentration required to elicit a 50% maximal aggregation), platelet aggregation"
1,SF[Cha][Cha]RN-NH2 (N-terminus assumed; SMILES N=C(N)NCCC[C@H](NC(=O)[C@H](CC1CCCCC1)NC(=O)[C@H](CC1CCCCC1)NC(=O)[C@H](Cc1ccccc1)NC(=O)[C@@H](N)CO)C(=O)N[C@@H](CC(N)=O)C(N)=O) [SF(Cha) (Cha)RN-NH2],1.1 µM
2,SF[Cha]LRN-NH2 (N-terminus assumed; SMILES CC(C)C[C@H](NC(=O)[C@H](CC1CCCCC1)NC(=O)[C@H](Cc1ccccc1)NC(=O)[C@@H](N)CO)C(=O)N[C@@H](CCCNC(=N)N)C(=O)N[C@@H](CC(N)=O)C(N)=O) [SF(Cha)LRN-NH2],1.3 µM
3,AFLLRNPNDKYE,12.9 µM
4,SFPLR-NH2 [SFPLR-NH2],22 µM
5,SFXLR (N-MeLeu at position 3; C-terminal amide (NH2)) [SF(N-MeLeu)LR-NH2],> 1000 µM
6,SFL[Nal]RN-NH2 (not fully specified; printed as SFL(Nal)RN-NH2) [SFL(Nal)RN-NH2],7.5 µM
7,SFL[Cha]R-NH2 (N-terminus assumed; SMILES CC(C)C[C@H](NC(=O)[C@H](Cc1ccccc1)NC(=O)[C@@H](N)CO)C(=O)N[C@@H](CC1CCCCC1)C(=O)N[C@@H](CCCNC(=N)N)C(N)=O) [SFL(Cha)R-NH2],6 µM
8,XFLLR (b-Ala at position 1; C-terminal amide (NH2)) [[b-Ala]-FLLR-NH2],99 µM
9,SFLLRNP-NH2 [SFLLRNP-NH2],4.5 µM
10,SFLLRNPNDK,6.3 µM
11,SF[Cha]LR-NH2 (N-terminus assumed; SMILES CC(C)C[C@H](NC(=O)[C@H](CC1CCCCC1)NC(=O)[C@H](Cc1ccccc1)NC(=O)[C@@H](N)CO)C(=O)N[C@@H](CCCNC(=N)N)C(N)=O) [SF(Cha)LR-NH2],1.5 µM
12,SFLLRNPN,7.6 µM
13,[SMeCys]FLLRN-NH2 (N-terminus assumed; SMILES CSC[C@H](N)C(=O)N[C@@H](Cc1ccccc1)C(=O)N[C@@H](CC(C)C)C(=O)N[C@@H](CC(C)C)C(=O)N[C@@H](CCCNC(=N)N)C(=O)N[C@@H](CC(N)=O)C(N)=O) [(S-MeCys)FLLRN-NH2],129 µM
14,SFLLX (D-Arg at position 5; C-terminal amide (NH2)) [SFLL(D-Arg)-NH2],594 µM
15,Ac-FLLRNPNDKYEPF [Ac-FLLRNPNDKYEPF],796 µM
16,TFLLRNPNDK,8.5 µM
17,SXLLR (Nal at position 2; C-terminal amide (NH2)) [S(Nal)LLR-NH2],42 µM
18,SFLLRN-NH2 [SFLLRN-NH2],1.6 µM
19,{2‑MeButyryl}-FLLR-NH2 [(2-MeButyryl]-FLLR-NH2],1500 µM
20,SF[Cha][Cha]LRNPNDK [SF(Cha) (Cha)LRNPNDK],5.4 µM
21,SXLLR (Cha at position 2; C-terminal amide (NH2)) [S(Cha)LLR-NH2],140 µM
22,SFLRR-NH2 [SFLRR-NH2],1000 µM
23,SFLL-NH2 [SFLL-NH2],146 µM
24,SFALRNPNDKYE,20.7 µM
25,SF[Phg]LR-NH2 (N-terminus assumed; SMILES CC(C)C[C@H](NC(=O)[C@@H](NC(=O)[C@H](Cc1ccccc1)NC(=O)[C@@H](N)CO)c1ccccc1)C(=O)N[C@@H](CCCNC(=N)N)C(N)=O) [SF(Phg)LR-NH2],6.7 µM

row,Binder,"EC50 (concentration required to elicit a 50% maximal aggregation), platelet aggregation"
1,SFRLR-NH2 [SFRLR-NH2],7.4 µM
2,SFYLRN-NH2 [SFYLRN-NH2],4.9 µM
3,SFLFR-NH2 [SFLFR-NH2],17 µM
4,SF[Tic]LRN-NH2 (N-terminus assumed; SMILES CC(C)C[C@H](NC(=O)[C@@H]1Cc2ccccc2CN1C(=O)[C@H](Cc1ccccc1)NC(=O)[C@@H](N)CO)C(=O)N[C@@H](CCCNC(=N)N)C(=O)N[C@@H](CC(N)=O)C(N)=O) [SF(Tic)LRN-NH2],11.3 µM
5,SFGLR-NH2 [SFGLR-NH2],95 µM
6,SXLLR (Thi at position 2; C-terminal amide (NH2)) [S(Thi)LLR-NH2],7.6 µM
7,SFLAR-NH2 [SFLAR-NH2],146 µM
8,CFLLR-NH2 [CFLLR-NH2],193 µM
9,SFLLR-NH2 [SFLLR-NH2],7.5 µM
10,desaminoAsn-FLLR-NH2 [[desaminoAsn]-FLLR-NH2],237 µM
11,SFLLRNPNDKYE,6.6 µM
12,GFLLR-NH2 [GFLLRNH2],7.3 µM
13,SXLLR (OMeTyr at position 2; C-terminal amide (NH2)) [S(OMeTyr)LLR-NH2],46 µM
14,SFILR-NH2 [SFILR-NH2],5.9 µM
15,SYLLR-NH2 [SYLLR-NH2],288 µM
16,SFLLA-NH2 [SFLLA-NH2],137 µM
17,SFFLR-NH2 [SFFLR-NH2],3.4 µM
18,SFLIRN-NH2 [SFLIRN-NH2],20.5 µM
19,{3‑Tetrahydrofuranoyl}-FLLR-NH2 [[3-Tetrahydrofuranoyl]-FLLR-NH2],1000 µM
20,XFLLR (desaminoSer at the N-terminus; C-terminal amide (NH2)) [[desaminoSer]-FLLR-NH2],920 µM
21,SFFLRN-NH2 [SFFLRN-NH2],1.5 µM
22,SFWLR-NH2 [SFWLR-NH2],24 µM
23,SFLQRN-NH2 [SFLQRN-NH2],61 µM
24,SFHLRN-NH2 [SFHLRN-NH2],40.5 µM
